# From article PMC5906480, “Tau Antibody Structure Reveals a Molecular Switch Defining a Pathological Conformation of the Tau Protein” (Scientific Reports, 2018)
# B1: C5.2: novel mouse monoclonal antibody that targets the pS396 tau epitope region (antibody, V domains shown)
# VH: QVQLQQSDAELVKPGASVKISCKASGYTFTDRTIHWVKQRPEQGLEWIGYIYPGDDSTKYNDMFKAKATLTADKSSNTAYMQLNSLTSDDSAVYFCARRGTMDYWGQGTSVTVSS
# VL: DVQMIQSPSSLSASLGDIVTMTCQASQDTSINLNWFQQKPGKAPKLLIYGASNLEDGVPSRFSGSRYGTDFTLTISSLEDEDMATYFCLQHTYLPFTFGSGTKLEIK
# Key:
# pS396/pS404 peptide = assay: ELISA, pS396/pS404 peptide; type: binding; conditions: plate coated with peptide 2 μg/mL; C5.2 IgG 8 μg/mL–0.05 ng/mL, 1 h room temperature; 405 nm
# Protocol: Immulon 4 HBX (extra high-binding) 96-well microtiter plates (Thermo Scientific) were coated with the same peptide used for crystallization diluted to 2 μg/mL in phosphate-buffered saline (PBS) and left overnight at 4 °C (Table 1). Plates were then washed three times in PBS-T (PBS containing 0.05% Tween-20) and blocked in 5% non-fat milk and 3% bovine serum albumin in PBS for 2 hours at room temperature. Plates were subsequently washed 3 times in PBS-T before C5.2 was serially diluted (8 μg/mL–0.05 ng/mL) in PBS and incubated for 1 hour at room temperature. Then, alkaline phosphatase-conjugated goat anti-mouse IgG (Southern Biotech) was diluted 1:2000 in PBS and incubated for 30 minutes at room temperature. Finally, bound IgG was analyzed by addition of p-nitrophenyl phosphate substrate (Thermo Scientific) and measurement at 405 nm on a VersaMax Microplate Reader.
# In order to evaluate the ability of C5.2 to exclusively target the phosphorylated epitope, we performed an enzyme-linked immunosorbent assay (ELISA). The peptides used in the assay are the same peptides used for crystallization and diluted to a concentration of 2 μg/mL (Table 1). Binding curves were generated from ELISA data by maintaining plate-bound peptide concentrations and serially diluting C5.2 IgG (Fig. 1c).
# [1] = tested on: normal tau in the soluble tau fraction (S1) from healthy control subjects; assay: Western and dot blot, healthy control brain; type: binding, human; conditions: C5.2 1 µg/mL overnight 4 °C, pool of 4 healthy control donors
# Protocol: Mice were euthanized by cervical dislocation. Brains were quickly removed, weighed and divided sagittally down the midline to yield two hemispheres. One hemisphere was parted from the cerebellum and hindbrain, the forebrain containing cerebral cortex and hippocampus was snap-frozen on dry ice and stored at −80 °C until use for biochemical analysis. Frontal cortices from 4 AD donors (2 males and 2 females) and 4 non-demented healthy controls (HC, 2 males and 2 females) were obtained from Cambridge Bioscience (Cambridge, UK). The brain tissue samples were fresh-frozen and stored at −80 °C until used for biochemical analysis. All donors were of Caucasian race. Age of AD donors: 76–91 years. Age of the HC donors: 57–80 years. […]
# Samples were boiled in 1 × LDS loading buffer and 100 mM DTT. […] Tau and pTau levels were assessed in the samples using 1 μg/mL C5.2 overnight at 4 °C. A secondary fluorophore conjugated IgG antibody was used (IRDye 680 Goat anti-mouse, LICOR biosciences) and the signal was quantified using Odyssey CLx and Image studio software (LI-COR biosciences).
# 1 μl sample of S1 and P3 isolated from 24 weeks old rTg4510 and non-transgenic littermate (non-tg) mice or from four pooled Alzheimer’s disease (AD) and healthy control (HC) brains was spotted on nitrocellulose membranes. […] Bound antibodies were detected using an enhanced chemiluminescence system (ECL PLUS kit; Perkin Elmer).
molecule,measurement,setting,value
B1,Association with peptide (ELISA),pS396/pS404 peptide,strong association
same,Detection of normal tau (S1),[1],not detected
